The values that follow come from paper PMC12295887.

In test [1] the target is actin purified from rabbit skeletal muscle (m. longissimus dorsi) (rabbit) (UniProt P68135).
The target is the same in test [2]. The source holds these as a separate data set.
Test [3] shares this target. The source holds these as a separate data set.

In test [1], “PEVKII, the middle one-third segment of the human skeletal muscle titin PEVK domain (domain or fragment)” came in with a peak pyrene fluorescence intensity (total amount of F-actin), 4 µM actin, PEVKII 3.25-32.5 nM, against actin alone of 22% and a time to reach the peak pyrene fluorescence intensity, 4 µM actin, PEVKII 3.25-32.5 nM, against actin alone of over 3 times faster. The pyrene-actin fluorescence excitation and emission intensity after 800 s of polymerization, 4 µM actin (10% pyrene-labeled) with 5.5 nM PEVKII, against actin alone in test [2] turned out to be 16%. Besides, in test [3], the initial rate of actin polymerization (pyrene assay, 4 µM actin), PEVKII 3.25-32.5 nM, against actin alone was over 30 fold.
